Test results as given in US20050089932A1, “Novel proteins with targeted binding” (Avidia Research Institute, priority 2001, published 2005).

Key:
[1] = commercial drugs; cited from earlier work
monkey PBMC = assay: PBMC assay on monkey cells; type: cell-based, cynomolgus monkeys
Description: (§1) Efficacy assays were performed using human and monkey PBMC as described above. CD28 results in PBMC assays:
(§2) In order to assay the ex-vivo efficacy of monomers, they were tested on isolated peripheral blood lymphocytes (PBMC). […]. Monomer protein was added in varying concentrations to each culture and incubation occurred for 3 days at 37° C. in a CO2 containing atmosphere. During the last 9 hours, cultures were pulsed with 1 uCi per well of ^3H thymidine (ICN, Costa Mesa, Calif.) and the incorporation of radioactivity was measured on a Wallac Trilux Microbeta scintillation counter (Perkin Elmer, Boston, Mass.). See, FIG. 23.

human PBMC = assay: PBMC assay on human cells; type: cell-based
Description: as §1, §2

[2] = target: T1, recombinant human FcERI protein (human, UniProt P12319 26-205, limits assumed); assay: Biacore, human IgE on CM5 chip
T1 construct: also called recombinant soluble IgE receptor; IgE receptor R1
T1 sequence (looked up): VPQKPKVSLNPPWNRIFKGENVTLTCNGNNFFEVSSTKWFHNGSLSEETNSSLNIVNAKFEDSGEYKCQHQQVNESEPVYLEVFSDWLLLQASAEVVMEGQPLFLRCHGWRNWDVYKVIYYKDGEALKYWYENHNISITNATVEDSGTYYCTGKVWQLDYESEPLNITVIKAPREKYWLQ
Excerpt: (§3) Human IgE was immobilized to a CM5 chip (BiaCore) using standard NHS/EDC methods. Sample proteins were dialyzed into HBS buffer overnight, and the dialysis buffer was used as a running buffer for the experiment. Sample proteins were run successively over IgE or ethanolamine coated flow cells, and the data analyzed using the BiaEvaluation software package.

human IgE = human IgE (Homo sapiens, UniProt P01854); assay: Biacore affinity measurements on immobilized human IgE; type: binding; conditions: IgE on CM5 chip
Excerpt: as §3

Rituxan: CD20 Antibody
Human T1/2 [1]: 78 h

Enbrel
Human T1/2 [1]: 103 h

Remicade: TNFa Antibody
Human T1/2 [1]: 216 h

B1: CD28 10: CD28 trimer, sequence >CD28-A10 (protein)
chain: CGPGRFQCESGQCVPATWVCDGDDDCADGSDEKSCATTAPTCESNQFQCGSGQCLPGTWRCDGVNDCADSSDETGCGRPGPGATSAPAACGPGRFQCNNGNCVPQTLGCDGDNDCGDSSDEANCSAPASEPPGSL
inhibition (monkey PBMC): inhibition = 81% | inhibition (human PBMC): inhibition = 81%

B2: human IgE (antibody)
chain: ASTQSPSVFPLTRCCKNIPSNATSVTLGCLATGYFPEPVMVTWDTGSLNGTTMTLPATTLTLSGHYATISLLTVSGAWAKQMFTCRVAHTPSSTDWVDNKTFSVCSRDFTPPTVKILQSSCDGGGHFPPTIQLLCLVSGYTPGTINITWLEDGQVMDVDLSTASTTQEGELASTQSELTLSQKHWLSDRTYTCQVTYQGHTFEDSTKKCADSNPRGVSAYLSRPSPFDLFIRKSPTITCLVVDLAPSKGTVNLTWSRASGKPVNHSTRKEEKQRNGTLTVTSTLPVGTRDWIEGETYQCRVTHPHLPRALMRSTTKTSGPRAAPEVYAFATPEWPGSRDKRTLACLIQNFMPEDISVQWLHNEVQLPDARHSTTQPRKTKGSGFFVFSRLEVTRAEWEQKDEFICRAVHEAASPSQTVQRAVSVNPGK
notes: Immobilized on plates or on a CM5 chip; variable regions and light chain not described
Kd [2]: 450 nM

B3: FcERI: recombinant human FcERI protein, the IgE receptor (protein)
chain: T1 sequence (looked up)
ka (human IgE): 8.4 × 10^3 | kd (human IgE): 3.8 × 10^−3
